T1: Rhesus D antigen (human, UniProt Q02161 2-417)
T1 construct: whole, on cells; Presented on RhD(+) erythrocytes; also called RhD; RhD antigen
T1 sequence (looked up): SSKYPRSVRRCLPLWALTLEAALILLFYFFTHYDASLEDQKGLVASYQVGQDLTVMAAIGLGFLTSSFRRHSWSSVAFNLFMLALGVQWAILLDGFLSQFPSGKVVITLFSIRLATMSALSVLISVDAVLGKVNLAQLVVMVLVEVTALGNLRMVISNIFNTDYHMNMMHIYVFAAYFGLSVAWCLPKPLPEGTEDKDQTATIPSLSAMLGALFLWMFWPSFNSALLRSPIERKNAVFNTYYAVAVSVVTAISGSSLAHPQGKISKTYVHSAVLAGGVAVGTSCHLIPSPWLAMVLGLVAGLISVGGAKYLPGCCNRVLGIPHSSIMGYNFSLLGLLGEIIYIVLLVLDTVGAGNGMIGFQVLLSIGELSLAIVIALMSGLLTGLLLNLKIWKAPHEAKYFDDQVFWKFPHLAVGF

B1: RhD317.144A02 (Fab, V domains shown)
VH: QVQLQESGPGLVKPSGTLSLTCAVSGGSIRGSNWWSWVRQPPGKGLEWIGEIHHGGSTNYNPSLKSRVTISVDKSKNRFSLKLSSVTAADTAVYYCARGTSYYDSSGYSFRGLVAFDIWGQGTMVTVSS
VL: EIVLTQSPGTLSLSPGERATLSCRASQSVSSAFLAWYQQKPGQAPRLLIYGASSRATGIPDRFSGSGSGTDFTLTISRLEPEDFAVYYCQQYGSFSITFGQGTRLEIKR
notes: Tested as Fab in E. coli periplasmic extract (VH on human gamma 1 CH1, vector Em351)
B2: RhD306.223E11 (Fab, V domains shown)
VH: QVQLVESGGGVVQPGRSLRLSCAASGFTFSSYGMHWVRQAPGKGLEWVAVIWYDGSNKYYADSVKGRFTISRDNSKNTLYLQMNTLRDDDTAVYYCAREGTLYSSSWYRRYYYYGMDAWGQGTTVTVSS
VL: EIVLTQSPGTLSLSPGERVTLSCRPSRYIASDYLAWYQLRPGQAPKLLIYGASSRATGIPDRFSGVGSPTDFTLTISRLEPEDFAMYYCHYSGGSPPYPFGQGTRLDIKR
notes: as for B1
B3: RhD305.181E06 (Fab, V domains shown)
VH: QVQLVESGGGVVQPGRSLRLSCAASGFTFSSYGMHWVRQAPGKGLEWVAGIWYDGSNKYYADSVKGRFTISRDNSRNTMYLQMNSLRAEDTAVYYCAREQGGYSSSWYRRYYYYNMDLWGQGTTVTVSS
VL: EIVLTQSPGSLSLSPGERATLSCRASQSVSSSYLAWYQQKPGQAPRLLIYGPSSRATGIPDRFSGSGSGTDFTLTISRLEPEDFAVYYCQHFGNSRGTFGQGTKVEIRR
notes: as for B1
B4: RhD321.187G08 (Fab, V domains shown)
VH: EVQLVESGGGLVKPGGSLRLSCAASGFTFRSYSMNWVRQAPGKGLEWVSSIGSSSIYTYSADSVKGRFTISRDNAKNSLYLQMNSLRAEDTAVYYCARGEPLNYDYIWGRSRLTIHWGQGTLVTVSS
VL: LNFMLTQPHSVSESPGKTVTISCTRSSGSIASNYMQWYQQRPGSSPTTVIYEDNRRPSGVPDRFSGSIDSSSNSASLTISGLKTEDEADYYCQSYDSNNWVFGGGTKLTVLG
notes: as for B1
B5: RhD324.231F07 (Fab, V domains shown)
VH: EVQLVESGGGLVQPGRSLRLSCVASGFTFSSYWMHWVRQVPGKGLVWVSRINVDGKSTSYADSVKGRFTISRDNAKNTLYLQMNSLRAEDTAVYYCARDPRRFLEWARYGMDVWGRGTTVTVSS
VL: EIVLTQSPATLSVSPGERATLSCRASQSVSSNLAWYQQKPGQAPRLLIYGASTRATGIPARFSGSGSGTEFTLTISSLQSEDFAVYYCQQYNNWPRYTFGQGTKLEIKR
notes: as for B1
B6: RhD319.187A11 (Fab, V domains shown)
VH: QVQLVESGGGVVQPGRSLRLSCAASGFTFSTYGMHWVRQAPGKGLEWVAVIWYDGSNKNYADSVKGRFTISRDNSKNTLYLQMNSLRAEDTAVYYCARDLQGYRSSWYRMYYYYGMDVWGQGTTVTVSS
VL: QTVVTQEPSLTVSPGGTVTLTCASSTGAVTSGYYPNWFQQKPGQAPRALIYSTSNKHSWTPARFSGSLLGGKAALTLSGVQPEDEAEYYCLLYYGGAQRWVFGGGTILTVLG
notes: as for B1
B7: RhD323.229B07 (Fab, V domains shown)
VH: QVQLVESGGGVVQPGRSLRLSCAASGFTFSSYGMHWVRQAPGKGLEWVAVIWYDGSNKYYADSVKGRFTISRDNSKNTLYLQMNSLRAEDTAVYYCARDWVTRSSNWYRNYYYYGMDVWGQGTTVTVSS
VL: DIQMTQSPSSLSASVGDRVTITCRASQSISSYLNWYQQKPGKAPKLLIYAASTLQSGVPSRFSGSGSGTDFTLTISSLQPEDFATYYCQQYYRTPTWTFGQGTKVEIKR
notes: as for B1
B8: RhD189.181E07 (Fab, V domains shown)
VH: QVQLVESGGGVVQPGRSLRLSCAASGFTFSSYGMHWVRQAPGKGLEWVAVIWYDGSNKYYADSVKGRFTISRDNSKNTLYLQMNSLRAEDTAVYYCARDMVTMVRGAYRNYYYYGMDVWGKGTTVTVSS
VL: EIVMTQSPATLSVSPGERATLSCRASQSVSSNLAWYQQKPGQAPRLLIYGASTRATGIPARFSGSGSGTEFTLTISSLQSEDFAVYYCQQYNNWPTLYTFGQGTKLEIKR
notes: as for B1
B9: RhD163.119A02 (Fab, V domains shown)
VH: QVQLQESGPGLVKPSETLSLTCTVSGGSISSYYWSWVRQPPGKGLEWIGYIYYSGSTNYNPSLKSRVTIALDTSKNQFSLKLRSVTAADTAVYFCTRDWRQYGSAIRGSRYYYGMDVWGQGTTVTVSS
VL: EIVLTQSPGTLSLSPGERATLSCRASQNPRRNFLAWYQQKPGQAPRLLIYAASTRATGIPDRFSGSGSGTDFTLTIDRLEPEDSAVYYCQVYGSSPLYTFGQGTKVEMKR
notes: as for B1
B10: RhD162.119G12 (Fab, V domains shown)
VH: QVQLVESGGGLVKPGGSLRLSCAASGFGFSAYSMNWVRQAPGKGLEWVSSITSTTTYYADSVKGRFSISRDNAKSTLYLRMNSLRAEDTAVYYCVREIAFRGSTYSRWSYYFDFWGQGTLVTVSS
VL: DIQLTQSPSSVSASVGDSVTITCRASQAVSGWVAWYQQKPGKAPKLLIFGLSNLEDGVPSRFSGSGSATDFTLTITGLQPEDLATYYCLQANRFPLSFGGGTRVEIKR
notes: as for B1
B11: RhD307.230E11 (Fab, V domains shown)
VH: QVQLVETGGGVVQPGRSLRLSCAASGFTFSSYGMHWVRQAPGKGLEWVAGIWYDGSNKYYGDSVKGRFTISRDNSRNTLYLHMNSLRADDTAVYYCAREHGGSRSGWYTLRLAYYFDYWGQGTLVTVSS
VL: DIQLTQSPSSLSASVGDRVTITCRASQYINVYLNWYQHKAGRAPKLLIYAASNLQSGVPPRFIGSGSGTDFTLTISSLQSEDFATYYCLQSFTVPRTFGPGTKVDVKR
notes: as for B1
B12: RhD304.164B06 (Fab, V domains shown)
VH: QVQLVQSGGGVVQPGRSLRLSCAASGFTFSSYGMHWVRQAPGKGLEWVAVIWYDGSNKYYADSVKGRFTISRDNSKNTLYLQMNSLRAEDTAVYYCARETVVVAAKIRNHYYYAMDVWGQGTTVTVSS
VL: DIQMTQSPSSLSASLGGTVTLTCRSSQFISRYLNWYQQHPGKVPRLLISGASRLQRGVPSRFTGGGSGTDFTLTIKNVQPDDIATYFCQHSYRSGRAFGQGTTVEVKR
notes: as for B1

Each binder was assayed against T1, Rhesus D antigen (assay: Fab screening on RBC (agglutination, FACS)).
Procedure: After each round of panning single colonies were picked for analysis of their binding properties to red blood cells in agglutination assays. Briefly, single colonies were inoculated into 2×YT/100 μg/mL carbenicillin/1% glucose and shaken overnight at 37° C. The next day, DeepWell plates were inoculated using 900 μl 2×YT/100 μg/mL carbenicillin/0.1% glucose and 10 μl overnight culture. The plates were shaken for two hours at 37° C., before Fab induction was performed with addition of 300 μl 2×YT/100 μg/mL carbenicillin/0.25 mM IPTG per well. The plate was shaken overnight at 30° C. The following day, the bacteria were pelleted by centrifugation (3200×g, 4° C., 10 minutes), and re-suspended in 100 μl of 0.8 M NaCl, 0.2×PBS, 8 mM EDTA, and incubated for 15 minutes on ice in order to perform a periplasmic extraction of the Fab fragments. The plate was transferred to −20° C. and finally the suspension was thawed and centrifugation was performed for 10 minutes at 4° C. and 3200×g. The periplasmic extract was used in ELISA assays for analysis of Fab content and in agglutination assays to evaluate the binding potential of the individual Fab fragments.
The agglutination assay was performed as follows: RhD(−) and RhD(+) RBC were mixed in a 1:1 ratio, and washed 3 times in PBS. After the final wash, the cell mix was re-suspended in 1% BSA in PBS at a density of 10% cells, 50 μl was added to each well of a 96-plate. Periplasmic extracts were added to the wells. As a positive control Rhesogamma P immunoglobulin (Aventis) was used according to the manufacturer's instructions. The plates were incubated for one hour at room temperature with gentle shaking. The cells were washed three times with PBS, before the secondary antibody was added (goat anti-human Fab/FITC conjugate, Sigma F5512) in a 1:100 dilution. The plates were left for agglutination for one hour at room temperature without shaking. Fab fragments positive in the agglutination assay was determined by visual inspection, and recorded by taking a picture. Quantization of the binding activity of the Fab fragments was performed by FACS analysis of the agglutination samples.
B1: binds.
B2: binds.
B3: binds.
B4: binds.
B5: binds.
B6: binds.
B7: binds.
B8: binds.
B9: binds.
B10: binds.
B11: binds.
B12: binds.

From US20090017017A1 (SYMPHOGEN A S, published 2009)
